{"source": "paper PMC5818262", "about": "(ACS chemical biology, 2012)", "molecules": {"B1": {"name": "CitA (Streptomyces coelicolor A3(2)) (protein)", "chain": "MSDNSVVLRYGDGEYTYPVIDSTVGDKGFDIGKLRAQTGLVTLDSGYGNTAAYKSAITYLDGEAGILRYRGYPIEQLAERSSFVEVAYLLINGELPTVDELSAFKGEITQHTLLHEDVKNFYKGFPRDAHPMAMLSSVVSALSTFYQDSHNPFDERQRNLSTIRLLAKLPTIAAYAYKKSIGHPFVYPANNLGYVENFLRMTFSVPAQEYELDPTVVAALDKLLILHADHEQNCSTSTVRLVGSSQANMFASISAGINALWGPLHGGANQSVLEMLEGIRDAGGDVDSFIRKVKNKEDGVRLMGFGHRVYKNFDPRAKIIKAAAHDVLSALGKSDELLDIALKLEEHALSDDYFVSRSLYPNVDFYTGLIYRAMGFPTEMFTVLFALGRLPGWIAQWHEMIKEPGSRIGRPRQIYTGVVERDFVPVEER"}, "B2": {"name": "AckA (E. coli) (Escherichia coli K-12) (protein)", "chain": "MSSKLVLVLNCGSSSLKFAIIDAVNGEEYLSGLAECFHLPEARIKWKMDGNKQEAALGAGAAHSEALNFIVNTILAQKPELSAQLTAIGHRIVHGGEKYTSSVVIDESVIQGIKDAASFAPLHNPAHLIGIEEALKSFPQLKDKNVAVFDTAFHQTMPEESYLYALPYNLYKEHGIRRYGAHGTSHFYVTQEAAKMLNKPVEELNIITCHLGNGGSVSAIRNGKCVDTSMGLTPLEGLVMGTRSGDIDPAIIFHLHDTLGMSVDAINKLLTKESGLLGLTEVTSDCRYVEDNYATKEDAKRAMDVYCHRLAKYIGAYTALMDGRLDAVVFTGGIGENAAMVRELSLGKLGVLGFEVDHERNLAARFGKSGFINKEGTRPAVVIPTNEELVIAQDASRLTA"}}, "key": {"[1]": {"test_system": "Cit1", "assay": "steady-state initial rates, Hill equation fit", "assay_type": "biochemical, Streptantibioticus cattleyicolor", "conditions": "read-out: K0.5"}, "[2]": {"test_system": "Cit2", "assay": "steady-state initial rates, Hill equation fit", "assay_type": "biochemical, Streptantibioticus cattleyicolor", "conditions": "read-out: K0.5"}, "[3]": {"target": "ACS (S. cattleya) (Streptantibioticus cattleyicolor, UniProt F8K1P4)", "assay_type": "biochemical"}, "[4]": {"target": "AckA (S. cattleya) (Streptantibioticus cattleyicolor, UniProt G8X369)", "assay_type": "biochemical"}, "[5]": {"target": "GltA (Escherichia coli, UniProt P0ABH7)", "sequence (P0ABH7 whole entry)": "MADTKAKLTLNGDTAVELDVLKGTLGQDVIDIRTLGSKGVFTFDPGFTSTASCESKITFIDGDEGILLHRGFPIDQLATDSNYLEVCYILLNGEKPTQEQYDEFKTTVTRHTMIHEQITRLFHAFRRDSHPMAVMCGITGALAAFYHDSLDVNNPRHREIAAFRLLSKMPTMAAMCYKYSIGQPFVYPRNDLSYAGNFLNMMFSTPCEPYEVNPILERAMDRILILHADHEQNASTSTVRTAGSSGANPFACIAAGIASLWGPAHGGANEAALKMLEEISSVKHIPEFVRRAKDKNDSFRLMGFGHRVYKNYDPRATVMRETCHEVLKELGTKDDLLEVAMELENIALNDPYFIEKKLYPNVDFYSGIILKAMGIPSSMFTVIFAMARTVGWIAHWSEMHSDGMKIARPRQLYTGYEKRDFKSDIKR", "assay": "steady-state initial rates, Hill equation fit", "assay_type": "biochemical", "conditions": "read-out: K0.5"}, "[6]": {"test_system": "CC(=O)SCCNC(=O)CCNC(=O)[C@H](O)C(C)(C)COP(=O)(O)OP(=O)(O)OC[C@H]1O[C@@H](n2cnc3c(N)ncnc32)[C@H](O)[C@@H]1OP(=O)(O)O", "assay": "steady-state initial rates, Hill equation fit", "assay_type": "biochemical, Escherichia coli"}, "[7]": {"substrate": "CC(=O)SCCNC(=O)CCNC(=O)[C@H](O)C(C)(C)COP(=O)(O)OP(=O)(O)OC[C@H]1O[C@@H](n2cnc3c(N)ncnc32)[C@H](O)[C@@H]1OP(=O)(O)O", "assay": "steady-state initial rates, Hill equation fit", "assay_type": "biochemical, Streptomyces coelicolor"}, "[8]": {"substrate": "CC(C)(COP(=O)(O)OP(=O)(O)OC[C@H]1O[C@@H](n2cnc3c(N)ncnc32)[C@H](O)[C@@H]1OP(=O)(O)O)[C@@H](O)C(=O)NCCC(=O)NCCSC(=O)CF", "assay": "steady-state initial rates, Hill equation fit", "assay_type": "biochemical, Streptomyces coelicolor"}, "[9]": {"substrate": "CC(=O)O", "assay": "purified protein"}}, "note": "Read-outs that look alike come from different tables or passages of the source."}
{"molecule": "O=C(O)CC(=O)C(=O)O", "note": "[Oxaloacetate]", "values": [{"measurement": "Km", "setting": "[1]", "result": "130 ± 20", "unit": "µM"}, {"measurement": "Km", "setting": "[2]", "result": "3.8 ± 0.4", "unit": "µM"}]}
{"molecule": "O=C(O)CF", "note": "[compound 6, Fluoroacetate]", "values": [{"measurement": "Km", "setting": "[3]", "result": 52, "unit": "mM"}, {"measurement": "Km", "setting": "[4]", "result": 5.7, "unit": "mM"}]}
{"molecule": "CC(C)(COP(=O)(O)OP(=O)(O)OC[C@H]1O[C@@H](n2cnc3c(N)ncnc32)[C@H](O)[C@@H]1OP(=O)(O)O)[C@@H](O)C(=O)NCCC(=O)NCCSC(=O)CF", "note": "[compound 9, Fluoroacetyl-CoA]", "values": [{"measurement": "Km", "setting": "[1]", "result": "16 ± 4", "unit": "µM"}, {"measurement": "Km", "setting": "[5]", "result": "5.1 ± 0.3", "unit": "µM"}, {"measurement": "Km", "setting": "[2]", "result": "0.98 ± 0.05", "unit": "µM"}]}
{"molecule": "CC(=O)SCCNC(=O)CCNC(=O)[C@H](O)C(C)(C)COP(=O)(O)OP(=O)(O)OC[C@H]1O[C@@H](n2cnc3c(N)ncnc32)[C@H](O)[C@@H]1OP(=O)(O)O", "note": "[compound 10, Acetyl-CoA]", "values": [{"measurement": "Km", "setting": "[1]", "result": "15 ± 2", "unit": "µM"}, {"measurement": "Km", "setting": "[2]", "result": "4.9 ± 0.4", "unit": "µM"}]}
{"molecule": "GltA (Escherichia coli K-12)", "values": [{"measurement": "K0.5", "setting": "[6]", "result": "170 ± 60", "unit": "µM"}, {"measurement": "kcat", "setting": "[6]", "result": "80 ± 10", "unit": "s⁻¹"}, {"measurement": "kcat/Km", "setting": "[6]", "result": "500000 ± 200000", "unit": "M⁻¹ s⁻¹"}]}
{"molecule": "B1", "values": [{"measurement": "K0.5", "setting": "[7]", "result": "47 ± 2", "unit": "µM"}, {"measurement": "kcat", "setting": "[7]", "result": "17.9 ± 0.4", "unit": "s⁻¹"}, {"measurement": "kcat/Km", "setting": "[7]", "result": "380000 ± 10000", "unit": "M⁻¹ s⁻¹"}, {"measurement": "K0.5", "setting": "[8]", "result": "15.4 ± 0.8", "unit": "µM"}, {"measurement": "kcat/Km", "setting": "[8]", "result": "126000 ± 8000", "unit": "M⁻¹ s⁻¹"}]}
{"molecule": "B2", "values": [{"measurement": "Km", "setting": "[9]", "result": "(2.7 ± 0.2) × 10^4 μM"}, {"measurement": "kcat", "setting": "[9]", "result": 1340, "unit": "s⁻¹"}, {"measurement": "kcat/Km", "setting": "[9]", "result": 50000, "unit": "M⁻¹ s⁻¹"}]}
